Positions count from the first letter of the chain named. In names and notes the source's numbering stands.
B1: PpAAT1 (Prunus persica; K298F) (protein)
chain: MGSLCPLLFPVNRFEPELITPAKPTPIETKQLSDIDDQDGLRFHFPVIISYKNNPSMKGNDAVMVIREALSRALVYYYPLAGRLREGPNRKLMVECNGEGVLFIEANADVTLEQLGDRILPPCPVLEEFLSNPPGSDGILGCPLLLVQVTRLTCGGFIFGLRINHAMCDAVGLAKFLNAIGEMAQGADSLSVPPVWARELLNARDPPTVTRWHYEYDQLLDSQGSFIAAIDQSNMAQRSFYFGPQQIRALRKHLPPHLSTCSSFELITACVWRCRTLSLRLNPKDTVRISCAVNARGFSINDLCLPSGFYGNAFSIPTAVSTVELLCASPLGYGVELVRKSKAQMDKEYMQSLADFFVIRGRPPLPMGWNVFIVSDNRHTGFGEFDVGWGRPLFAGLARAFSMISFYVRDNNQEEEFGTLVPICLPSTSLERFEEELKKMTLEHVEEISK
notes: codon-optimised, C-terminal polyhistidine tag, pET-30a(+), expressed in E. coli, purified; HxxxD motif HAMCD at H165-D169
B2: PpAAT1 (Prunus persica; S262A) (protein)
chain: B1 chain with S262A, F298K
notes: as for B1
B3: PpAAT1 (Prunus persica; F314Y) (protein)
chain: B1 chain with F298K, F314Y
notes: as for B1
B4: PpAAT1 (Prunus persica; R339V) (protein)
chain: B1 chain with F298K, R339V
notes: as for B1
B5: PpAAT1 (Prunus persica; A170S) (protein)
chain: B1 chain with A170S, F298K
notes: as for B1
B6: PpAAT1 (Prunus persica; F264Y) (protein)
chain: B1 chain with F264Y, F298K
notes: as for B1
B7: PpAAT1 (Prunus persica; F382Y) (protein)
chain: B1 chain with F298K, F382Y
notes: as for B1
B8: PpAAT1 (Prunus persica; A174S) (protein)
chain: B1 chain with A174S, F298K
notes: as for B1
B9: PpAAT1 (Prunus persica) (protein)
chain: B1 chain with F298K
notes: as for B1
B10: PpAAT1 (Prunus persica; H379V) (protein)
chain: B1 chain with F298K, H379V
notes: as for B1
B11: PpAAT1 (Prunus persica; K342F) (protein)
chain: B1 chain with F298K, K342F
notes: as for B1

The molecules below were run against T1, PpAAT1 (Prunus persica, UniProt M5WU76) (assay: esterification assay). Details: co-substrate acetyl-CoA; product decyl acetate.
T1 construct: gene AAT1; codon-optimised, C-terminal polyhistidine tag, pET-30a(+), expressed in E. coli, purified; HxxxD motif HAMCD at H165-D169
T1 sequence (M5WU76 entry or part of it): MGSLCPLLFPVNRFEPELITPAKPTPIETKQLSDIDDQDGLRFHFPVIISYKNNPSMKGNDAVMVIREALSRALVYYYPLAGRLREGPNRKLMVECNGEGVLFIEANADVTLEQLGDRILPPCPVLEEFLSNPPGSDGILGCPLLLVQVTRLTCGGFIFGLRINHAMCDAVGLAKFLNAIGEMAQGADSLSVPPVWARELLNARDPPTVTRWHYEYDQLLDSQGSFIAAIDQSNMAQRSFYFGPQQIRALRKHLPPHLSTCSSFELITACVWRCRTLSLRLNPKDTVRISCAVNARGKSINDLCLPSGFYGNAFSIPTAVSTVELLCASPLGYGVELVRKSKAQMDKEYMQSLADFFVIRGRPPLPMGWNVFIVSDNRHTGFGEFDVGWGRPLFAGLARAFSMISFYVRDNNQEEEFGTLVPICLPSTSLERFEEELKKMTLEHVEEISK
Type: biochemical

Molecule	Kcat/Km
CCCCCCCCCCO [decanol]	acetyl–CoA and four different alcohols (propanol, hexanol, benzyl alcohol, and decanol)

Same assay, conditions: co-substrate acetyl-CoA; product hexyl acetate

Molecule	Kcat/Km
CCCCCCO [hexanol]	a higher Kcat/Km ratio was observed in all substitutions when hexanol was used as the substrate

Same assay, conditions: co-substrate acetyl-CoA; product phenylmethyl acetate

Molecule	Kcat/Km
OCc1ccccc1 [benzyl alcohol]	acetyl–CoA and four different alcohols (propanol, hexanol, benzyl alcohol, and decanol)

Same assay, conditions: co-substrate acetyl-CoA; product propyl acetate

Molecule	Kcat/Km
CCCO [propanol]	acetyl–CoA and four different alcohols (propanol, hexanol, benzyl alcohol, and decanol)

These molecules were tested on CCCCCCC(O)CCC(=O)SCCNC(=O)CCNC(=O)[C@H](O)C(C)(C)COP(=O)(O)OP(=O)(O)OC[C@H]1O[C@@H](n2cnc3c(N)ncnc32)[C@H](O)[C@@H]1OP(=O)(O)O (assay: GC-MS of gamma-decalactone formation). Details: internal esterification to gamma-decalactone; ±SE, n = 3.
Type: biochemical, Prunus persica
Source text: GC-MS of gamma-decalactone formation on PpAAT1

Molecule	Km	kcat	kcat/Km
B1	10.1014 (±1.4928) mM	0.451 ± 0.0624 s⁻¹	44.1 ± 7.9 M⁻¹ s⁻¹
B2	2.9920 (±0.3836) mM	2.36 ± 0.364 s⁻¹	790 ± 190 M⁻¹ s⁻¹
B3	4.2018 (±0.5997) mM	1.11 ± 0.119 s⁻¹	265 ± 31.1 M⁻¹ s⁻¹
B4	8.8556 (±1.4954) mM	0.322 ± 0.0547 s⁻¹	36.3 ± 5.1 M⁻¹ s⁻¹
B5	4.5852 (±0.6923) mM	1.28 ± 0.1 s⁻¹	278 ± 19.4 M⁻¹ s⁻¹
B6	3.0241 (±0.5145) mM	2.53 ± 0.287 s⁻¹	836 ± 122 M⁻¹ s⁻¹
B7	9.0224 (±0.7366) mM	0.373 ± 0.0138 s⁻¹	41.3 ± 2.7 M⁻¹ s⁻¹
B8	9.1599 (±1.0952) mM	0.399 ± 0.048 s⁻¹	43.6 ± 6.9 M⁻¹ s⁻¹
B9	2.6187 (±0.2511) mM	2.72 ± 0.146 s⁻¹	1040 ± 91.6 M⁻¹ s⁻¹
B10	8.2152 (±0.9510) mM	0.362 ± 0.0249 s⁻¹	44.1 ± 3.6 M⁻¹ s⁻¹
B11	5.0532 (±0.3364) mM	1.32 ± 0.0927 s⁻¹	262 ± 74.2 M⁻¹ s⁻¹
